These results are taken from paper PMC8857481.

The target of the assay is FLAG-METTL5-G61D (human) (UniProt Q9NRN9). Briefly: co-IP; anti-FLAG M2 beads in clarified lysate of transfected HeLa cells, 1 h at 4 °C; 50 mM Tris pH 7.4, 150 mM NaCl, 10% glycerol, 1.5 mM MgCl2, 0.5 mM EDTA, 0.2% NP-40, 1 mM DTT; three washes; Western blot with anti-FLAG and anti-TRMT112.
Chain of UniProt Q9NRN9 (Q9NRN9 whole entry G61D): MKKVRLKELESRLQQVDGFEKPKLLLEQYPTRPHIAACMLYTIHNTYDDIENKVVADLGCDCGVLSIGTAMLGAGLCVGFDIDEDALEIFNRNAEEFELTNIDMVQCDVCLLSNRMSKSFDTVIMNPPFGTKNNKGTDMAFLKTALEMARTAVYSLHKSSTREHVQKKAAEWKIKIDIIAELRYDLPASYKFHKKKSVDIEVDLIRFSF

B1: TRMT112 (natural protein)
chain: MKLLTHNLLSSHVRGVGSRGFPLRLQATEVRICPVEFNPNFVARMIPKVEWSAFLEAADNLRLIQVPKGPVEGYEENEEFLRTMHHLLLEVEVIEGTLQCPESGRMFPISRGIPNMLLSEEETES
Molecule B1 showed a TRMT112 bound relative to that bound to FLAG-METTL5-WT of 5 to 15%.
